{"source": "patent US9512195B2", "about": "“Insulin derivatives containing additional disulfide bonds” (Novo Nordisk A/S, priority 2010, dated 2016)", "target": "T1, human insulin receptor (human IR-A) (Homo sapiens, UniProt P06213)", "T1 construct": "solubilized human IR (holoreceptor); expressed in transfected cells; host or cells: baby hamster kidney (BHK) cells, stably transfected (pZem vector); detergent-solubilised and semipurified on wheat germ agglutinin", "T1 sequence (P06213 28-746 isoform P06213-2 limits assumed)": "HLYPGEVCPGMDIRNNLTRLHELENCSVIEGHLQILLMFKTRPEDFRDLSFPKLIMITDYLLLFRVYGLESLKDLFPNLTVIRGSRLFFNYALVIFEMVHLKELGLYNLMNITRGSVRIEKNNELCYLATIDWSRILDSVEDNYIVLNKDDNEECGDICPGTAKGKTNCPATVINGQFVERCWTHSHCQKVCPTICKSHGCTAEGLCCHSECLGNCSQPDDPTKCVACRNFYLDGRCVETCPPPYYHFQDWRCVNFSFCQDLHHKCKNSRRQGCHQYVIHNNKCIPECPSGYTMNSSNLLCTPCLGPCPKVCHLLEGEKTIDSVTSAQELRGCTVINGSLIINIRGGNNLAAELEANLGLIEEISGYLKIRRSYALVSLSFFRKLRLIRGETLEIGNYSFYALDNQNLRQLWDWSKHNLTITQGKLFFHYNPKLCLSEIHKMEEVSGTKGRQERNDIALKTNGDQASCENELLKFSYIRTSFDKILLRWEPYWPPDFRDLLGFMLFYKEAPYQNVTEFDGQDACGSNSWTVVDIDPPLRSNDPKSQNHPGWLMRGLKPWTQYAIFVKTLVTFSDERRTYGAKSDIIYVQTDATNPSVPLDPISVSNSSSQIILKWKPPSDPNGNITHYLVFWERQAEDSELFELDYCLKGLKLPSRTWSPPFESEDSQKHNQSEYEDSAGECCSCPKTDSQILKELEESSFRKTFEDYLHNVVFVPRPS", "T1 sequence (P06213 763-1382 partner limits assumed)": "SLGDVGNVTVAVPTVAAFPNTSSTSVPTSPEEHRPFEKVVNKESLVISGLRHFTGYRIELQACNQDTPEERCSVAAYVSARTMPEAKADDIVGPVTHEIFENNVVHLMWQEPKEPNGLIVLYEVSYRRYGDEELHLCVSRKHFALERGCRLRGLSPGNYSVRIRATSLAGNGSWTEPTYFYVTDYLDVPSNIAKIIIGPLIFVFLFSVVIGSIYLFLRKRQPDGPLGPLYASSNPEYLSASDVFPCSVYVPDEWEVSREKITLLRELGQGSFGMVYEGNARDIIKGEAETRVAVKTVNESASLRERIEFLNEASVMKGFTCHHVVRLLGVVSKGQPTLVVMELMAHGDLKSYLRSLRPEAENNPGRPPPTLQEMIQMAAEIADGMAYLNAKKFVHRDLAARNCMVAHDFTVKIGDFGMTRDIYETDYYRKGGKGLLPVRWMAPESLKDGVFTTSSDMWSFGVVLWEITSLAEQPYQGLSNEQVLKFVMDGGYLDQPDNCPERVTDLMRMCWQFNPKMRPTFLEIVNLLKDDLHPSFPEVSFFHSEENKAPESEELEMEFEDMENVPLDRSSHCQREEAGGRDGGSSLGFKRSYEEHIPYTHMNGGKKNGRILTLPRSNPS", "experiment": "Insulin receptor binding assay (SPA, on solubilised insulin receptor)", "settings": "comparison table of side chain and parent insulin mutations (rel. to HI)", "protocol": "Insulin Receptor Binding Assay (on Solubilised Insulin Receptor)\nCompetition binding experiments were performed in 96-well plates (polystyrene Optiplate-96, PerkinElmer) on an Eppendorf epMotion 5075 robot using solubilized human IR (holoreceptor) semipurified by wheat germ agglutinin purification from baby hamster kidney (BHK) cells, which were stably transfected with the pZem vector containing the human IR-A or IR-B insert.", "data": [{"substance": "C18-gGlu- desB30: desB30 human insulin with side chain C18-gGlu- (cell cut off), no additional disulfide bond", "values": [{"measurement": "Relative IR-A affinity SPA assay (@ 0% HSA)", "setting": "0% HSA", "value": 10.4}, {"measurement": "Relative IR-A affinity SPA assay (@ […]", "setting": "[…] (HSA)", "value": 0.70}]}]}
